# Legend:
# SEC [1] = target: the molecule itself; test: SEC
# SEC-SAXS = target: the molecule itself; test: SEC-SAXS
# SEC [2] = target: the molecule itself; test: SEC; remark: listed apart in the source
Protein,stoichiometry N (SEC [1]),stoichiometry N (SEC-SAXS),stoichiometry N (SEC [2])
"S100A3 R51Q mutant (natural protein, human) MARPLEQAVAAIVCTFQEYAGRCGDKYKLCQAELKELLQKELATWTPTEFQECDYNKFMSVLDTNKDCEVDFVEYVRSLACLCLYCHEYFKDCPSEPPCSQ",4,2,–
"citrullinated S100A3 (R51Z), WT S100A3 citrullinated in vitro by PAD3 (natural protein, human, citrulline at R51 (by PAD3 in vitro)) MARPLEQAVAAIVCTFQEYAGRCGDKYKLCQAELKELLQKELATWTPTEFRECDYNKFMSVLDTNKDCEVDFVEYVRSLACLCLYCHEYFKDCPSEPPCSQ",4,–,–
"S100A3 R51E mutant (natural protein, human) MARPLEQAVAAIVCTFQEYAGRCGDKYKLCQAELKELLQKELATWTPTEFEECDYNKFMSVLDTNKDCEVDFVEYVRSLACLCLYCHEYFKDCPSEPPCSQ",–,–,4
